From patent US20210186964, “METHODS OF TREATING CANCERS” (Dana-Farber Cancer Institute, Inc., published 2021) come the findings set out here.

The target in one data set is USP12 (UniProt O75317 SEQ:1-370). As to the kind of experiment: EMSA; 300 nM USP12. The note with it: label: Cy3. The protocol: (§1) Recombinant USP1 and UAF1 proteins from R&D systems (E564, E566) were used for some electromobility shift assays and in vitro deubiquitination assays. Electromobility shift assays were performed by pre-incubating fluorophore (Cy3)-tagged DNA and purified protein in binding buffer (20 mM Hepes (pH 7.6), 0.1M KCl, 5 mM MgCl2, 3% (v/v) glycerol, 0.25 mg/ml BSA, 0.05 mM EDTA, 0.5 mM DTT, 0.01% (v/v) NP-40) for 30 min on ice. Samples were then loaded onto 6% polyacrylamide gels and ran at 65V in 0.5× TBE for 135 min at 4° C. Gels were visualized using the LAS-4000 imaging system (GE Healthcare Life Sciences, Pittsburgh, Pa.). DNA used for Ub-AMC, Ub-CHOP2 and electromobility shift assay were 40 bp in length and were designed to have minimal potential of secondary structure formation. The sequences are as follows:
USP1, USP12, and USP46 are related DUB proteins which bind and are stimulated by UAF1 (20, 23, 24, 31, 32). All three proteins contain a conserved UAF1 binding site, localized to a zinc finger region of each polypeptide (FIG. 10A). These USPs bind to a discrete WD40 domain of UAF1 (23, 24). Of the three proteins, USP1 is the largest protein, as shown by the sequence alignment with USP12 and USP46 (FIG. 10C).
Background: Mobility shift assays separate free from complexed probe on a gel.

The target in the next data set is T1, USP1 (UniProt O94782 SEQ:1-770).
T1 sequence: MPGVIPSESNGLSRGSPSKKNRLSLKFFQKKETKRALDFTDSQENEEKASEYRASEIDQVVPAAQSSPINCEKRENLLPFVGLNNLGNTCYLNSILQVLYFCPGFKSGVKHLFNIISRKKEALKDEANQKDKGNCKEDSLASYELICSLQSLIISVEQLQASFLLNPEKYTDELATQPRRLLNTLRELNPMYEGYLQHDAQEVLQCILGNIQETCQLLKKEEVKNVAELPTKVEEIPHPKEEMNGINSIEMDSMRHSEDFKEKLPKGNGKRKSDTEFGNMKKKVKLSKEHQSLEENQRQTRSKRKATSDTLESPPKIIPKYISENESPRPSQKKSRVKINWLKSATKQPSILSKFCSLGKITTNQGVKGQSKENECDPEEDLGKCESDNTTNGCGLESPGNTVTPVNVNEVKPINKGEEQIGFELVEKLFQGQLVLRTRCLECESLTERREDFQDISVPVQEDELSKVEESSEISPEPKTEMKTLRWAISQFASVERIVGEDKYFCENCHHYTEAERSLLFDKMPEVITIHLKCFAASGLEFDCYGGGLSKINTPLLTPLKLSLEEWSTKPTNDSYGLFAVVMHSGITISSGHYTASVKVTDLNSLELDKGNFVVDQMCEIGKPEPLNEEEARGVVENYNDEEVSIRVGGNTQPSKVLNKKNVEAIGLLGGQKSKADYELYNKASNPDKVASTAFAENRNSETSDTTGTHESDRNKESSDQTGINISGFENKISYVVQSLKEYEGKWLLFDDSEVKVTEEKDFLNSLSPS
As to the kind of experiment: EMSA; 300 nM USP1; strongest shift; 5 mM MgCl2, 0.1 M KCl, on ice; not disrupted by ML323 (FIG. 11C). Particulars: tags: SF9-made or R&D systems E564; label: Cy3; fork with non-complementary single-stranded arms. The protocol: as §1
(§2) Since UAF1 has DNA binding activity, USP1 might also bind DNA and thereby stabilize replication forks. To test this hypothesis, DNA gel shift assays were performed with purified UAF1 protein with or without purified USP1 protein to analyze direct DNA binding activity. Purified proteins were incubated with either single strand DNA, double strand DNA, or fork DNA. The UAF1 protein and the USP1/UAF1 complex generated a reproducible gel shift of all three DNA templates.

A further data set addresses USP1/UAF1 complex (UniProt O94782;Q8TAF3 O94782:1-785,Q8TAF3:1-677). Briefly: EMSA; 100 nM USP1 + 300 nM UAF1. Particulars: tags: SF9-made, R&D systems or Boston Biochem, label: Cy3. The protocol: as §1, §2
The next data set addresses UAF1 (WDR48) (UniProt Q8TAF3 Q8TAF3:1-677). As to the kind of experiment: EMSA; 300 nM UAF1. The note with it: tags: SF9-made or R&D systems E566, label: Cy3. The protocol:
as §1, §2

Where [1] appears, read: fork with non-complementary single-stranded arms.

Chain of UAF1 (WDR48) (Q8TAF3 whole entry, one chain of several): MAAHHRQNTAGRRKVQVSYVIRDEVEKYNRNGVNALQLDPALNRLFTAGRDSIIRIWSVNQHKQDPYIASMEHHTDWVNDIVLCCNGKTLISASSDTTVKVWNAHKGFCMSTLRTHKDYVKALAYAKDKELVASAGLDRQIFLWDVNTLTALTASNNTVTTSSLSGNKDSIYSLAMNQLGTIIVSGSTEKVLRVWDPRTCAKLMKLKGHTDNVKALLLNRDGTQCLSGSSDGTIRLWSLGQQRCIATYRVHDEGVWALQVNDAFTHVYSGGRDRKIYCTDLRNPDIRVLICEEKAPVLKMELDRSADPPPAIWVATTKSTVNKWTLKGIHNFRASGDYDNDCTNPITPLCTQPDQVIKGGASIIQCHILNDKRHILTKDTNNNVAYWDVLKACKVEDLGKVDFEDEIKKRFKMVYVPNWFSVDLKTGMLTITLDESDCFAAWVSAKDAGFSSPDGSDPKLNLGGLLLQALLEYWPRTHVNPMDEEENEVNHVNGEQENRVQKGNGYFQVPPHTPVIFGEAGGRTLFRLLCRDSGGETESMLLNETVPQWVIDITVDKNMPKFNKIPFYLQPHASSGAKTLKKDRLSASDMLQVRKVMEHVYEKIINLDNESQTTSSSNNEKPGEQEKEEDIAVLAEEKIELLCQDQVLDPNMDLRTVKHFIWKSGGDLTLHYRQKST
Chain of USP1/UAF1 complex (Q8TAF3 whole entry, one chain of several): as above
Chain of USP12 (O75317 whole entry): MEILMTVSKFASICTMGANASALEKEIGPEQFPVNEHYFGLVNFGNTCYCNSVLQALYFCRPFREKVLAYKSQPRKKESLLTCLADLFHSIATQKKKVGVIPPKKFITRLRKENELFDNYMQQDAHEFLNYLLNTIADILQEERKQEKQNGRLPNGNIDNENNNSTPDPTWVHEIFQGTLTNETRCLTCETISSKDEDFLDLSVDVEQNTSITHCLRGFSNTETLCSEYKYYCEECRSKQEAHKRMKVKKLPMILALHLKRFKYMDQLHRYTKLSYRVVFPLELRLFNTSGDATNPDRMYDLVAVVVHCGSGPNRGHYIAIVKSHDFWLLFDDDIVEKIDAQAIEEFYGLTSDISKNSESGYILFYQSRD

B1: 40-mer fork DNA (structured_DNA)
DNA 1: CCAGTGAATTGTTGCTCGGTACCTGCTAACGGTAATCGG
DNA 2: CAGCTATGGGACATTCGATACCGAGCAACAATTCACTGG
On to B1, for which the binding result is “no binding” with USP12 (setting [1]), “binds” with USP1, “binds” in the data set with USP1/UAF1 complex (setting [1]) and “binds” in the data set with UAF1 (WDR48) (setting [1]).

B2: 40-mer ssDNA (top) (ssDNA)
DNA: CCAGTGAATTGTTGCTCGGTACCTGCTAACGGTAATCGG
As for B2, the binding result is given as “no binding” in the data set with USP12, “binds” in the data set with USP1/UAF1 complex and “binds” with UAF1 (WDR48).

B3: 40-mer dsDNA (dsDNA)
DNA 1: CCAGTGAATTGTTGCTCGGTACCTGCTAACGGTAATCGG
DNA 2: CCGATTACCGTTAGCAGGTACCGAGCAACAATTCACTGG
With B3, the binding result with USP12 was “no binding”; with USP1/UAF1 complex, “binds”; in the data set with UAF1 (WDR48), “binds”.
